Assay results taken from US7070777.
Values belong to the substance of their own block, whether it stands above or below them.

Experiments:
CD3 (human) [1] = biological target: CD3 (human) (UniProt P07766); experiment: FACS on Jurkat B2.7 cells; background subtracted, rounded to nearest ten
CD3 (human) [2] = biological target: CD3 (human) (UniProt P07766); experiment: FACS on Jurkat D1.1 cells; background subtracted, rounded to nearest ten
MHC-classI (human) [3] = experiment: FACS on Jurkat B2.7 cells; background subtracted, rounded to nearest ten
MHC-classI (human) [4] = experiment: FACS on Jurkat D1.1 cells; background subtracted, rounded to nearest ten
CD4 (human) = CD4 (human) (UniProt P01730); experiment: FACS on Jurkat B2.7 cells; background subtracted, rounded to nearest ten
[5] = biological target: CD43RO (so in the source); T200. LCA) (human) (UniProt P08575); experiment: as above
CD43RO (so in the source); T200. LCA) (human), sequence (P08575 26-1306): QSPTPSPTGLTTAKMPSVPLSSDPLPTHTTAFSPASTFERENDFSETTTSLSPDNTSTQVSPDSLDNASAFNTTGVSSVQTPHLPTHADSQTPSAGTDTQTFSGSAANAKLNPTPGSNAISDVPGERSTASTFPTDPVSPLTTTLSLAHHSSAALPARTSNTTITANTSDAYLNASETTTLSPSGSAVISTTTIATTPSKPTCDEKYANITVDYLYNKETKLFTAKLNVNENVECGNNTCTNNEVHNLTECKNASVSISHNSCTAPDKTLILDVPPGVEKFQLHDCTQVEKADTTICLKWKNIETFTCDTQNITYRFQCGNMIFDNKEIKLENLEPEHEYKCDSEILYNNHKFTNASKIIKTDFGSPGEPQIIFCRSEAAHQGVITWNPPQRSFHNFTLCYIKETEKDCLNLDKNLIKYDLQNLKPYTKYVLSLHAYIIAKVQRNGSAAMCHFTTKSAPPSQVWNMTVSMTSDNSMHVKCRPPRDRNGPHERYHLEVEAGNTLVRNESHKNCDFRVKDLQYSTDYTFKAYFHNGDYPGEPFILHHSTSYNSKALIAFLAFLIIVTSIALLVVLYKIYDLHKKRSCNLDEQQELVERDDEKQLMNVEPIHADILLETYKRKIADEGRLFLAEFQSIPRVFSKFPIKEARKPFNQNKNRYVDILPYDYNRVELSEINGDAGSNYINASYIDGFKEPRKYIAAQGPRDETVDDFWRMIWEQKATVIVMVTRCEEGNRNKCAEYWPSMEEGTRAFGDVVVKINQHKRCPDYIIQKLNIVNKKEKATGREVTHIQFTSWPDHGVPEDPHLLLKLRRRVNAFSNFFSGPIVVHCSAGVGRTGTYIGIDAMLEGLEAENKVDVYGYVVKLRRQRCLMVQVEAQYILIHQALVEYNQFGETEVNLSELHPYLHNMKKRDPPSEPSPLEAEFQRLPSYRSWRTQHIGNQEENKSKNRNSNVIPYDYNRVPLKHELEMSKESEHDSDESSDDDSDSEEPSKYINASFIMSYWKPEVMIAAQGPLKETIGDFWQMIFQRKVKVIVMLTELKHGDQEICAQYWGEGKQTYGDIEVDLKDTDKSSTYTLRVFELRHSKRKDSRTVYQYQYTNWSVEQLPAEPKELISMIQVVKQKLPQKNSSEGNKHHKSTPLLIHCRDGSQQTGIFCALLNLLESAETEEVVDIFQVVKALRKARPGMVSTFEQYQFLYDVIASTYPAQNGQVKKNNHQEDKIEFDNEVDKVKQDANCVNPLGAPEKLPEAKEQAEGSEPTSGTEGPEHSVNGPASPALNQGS

[6] = biological target: CD43RO (so in the source); T200. LCA) (human) (UniProt P08575); experiment: FACS on Jurkat D1.1 cells; background subtracted, rounded to nearest ten
CD11a (human) [7] = biological target: CD11a (human) (UniProt P20701); experiment: FACS on Jurkat B2.7 cells; background subtracted, rounded to nearest ten
CD11a (human), sequence (P20701 26-1170): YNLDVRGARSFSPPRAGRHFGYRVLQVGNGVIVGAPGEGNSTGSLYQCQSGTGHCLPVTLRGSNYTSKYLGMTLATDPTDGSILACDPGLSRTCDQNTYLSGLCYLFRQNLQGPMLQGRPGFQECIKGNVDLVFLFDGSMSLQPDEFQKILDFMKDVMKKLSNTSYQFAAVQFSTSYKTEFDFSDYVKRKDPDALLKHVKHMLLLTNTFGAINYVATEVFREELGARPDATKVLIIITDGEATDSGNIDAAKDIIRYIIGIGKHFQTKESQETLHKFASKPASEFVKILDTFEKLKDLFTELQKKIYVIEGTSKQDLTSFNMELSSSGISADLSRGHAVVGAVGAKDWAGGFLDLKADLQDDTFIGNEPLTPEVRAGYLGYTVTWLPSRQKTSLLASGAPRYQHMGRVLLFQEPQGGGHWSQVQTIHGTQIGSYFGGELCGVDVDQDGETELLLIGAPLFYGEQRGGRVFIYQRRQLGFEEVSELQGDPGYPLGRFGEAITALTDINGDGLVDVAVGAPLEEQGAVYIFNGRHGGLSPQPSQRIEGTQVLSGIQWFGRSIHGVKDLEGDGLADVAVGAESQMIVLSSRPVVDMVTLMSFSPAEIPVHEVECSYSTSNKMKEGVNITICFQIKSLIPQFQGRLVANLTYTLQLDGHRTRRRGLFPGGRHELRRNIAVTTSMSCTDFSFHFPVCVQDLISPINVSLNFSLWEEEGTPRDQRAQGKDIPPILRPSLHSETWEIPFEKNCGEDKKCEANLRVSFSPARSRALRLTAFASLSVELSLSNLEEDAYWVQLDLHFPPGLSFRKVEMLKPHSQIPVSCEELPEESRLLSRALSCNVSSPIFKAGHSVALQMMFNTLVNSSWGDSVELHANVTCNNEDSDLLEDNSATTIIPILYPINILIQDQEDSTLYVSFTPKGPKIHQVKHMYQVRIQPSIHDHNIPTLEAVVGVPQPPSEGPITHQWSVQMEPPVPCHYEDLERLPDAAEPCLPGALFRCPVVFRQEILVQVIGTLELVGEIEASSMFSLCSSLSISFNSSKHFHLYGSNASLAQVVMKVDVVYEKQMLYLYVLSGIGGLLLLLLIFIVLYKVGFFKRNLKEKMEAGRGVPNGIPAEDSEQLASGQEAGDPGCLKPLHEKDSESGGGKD

CD11a (human) [8] = biological target: CD11a (human) (UniProt P20701); experiment: FACS on Jurkat D1.1 cells; background subtracted, rounded to nearest ten
CD45RA (human) [9] = biological target: CD45RA (human) (UniProt P08575); experiment: FACS on Jurkat B2.7 cells; background subtracted, rounded to nearest ten
CD45RA (human), sequence (P08575 26-1306): as the sequence (P08575 26-1306) above

CD45RA (human) [10] = biological target: CD45RA (human) (UniProt P08575); experiment: FACS on Jurkat D1.1 cells; background subtracted, rounded to nearest ten
CD1a (human) [11] = biological target: CD1a (human) (UniProt P06126); experiment: FACS on Jurkat B2.7 cells; background subtracted, rounded to nearest ten
CD1a (human), sequence (P06126 17-327): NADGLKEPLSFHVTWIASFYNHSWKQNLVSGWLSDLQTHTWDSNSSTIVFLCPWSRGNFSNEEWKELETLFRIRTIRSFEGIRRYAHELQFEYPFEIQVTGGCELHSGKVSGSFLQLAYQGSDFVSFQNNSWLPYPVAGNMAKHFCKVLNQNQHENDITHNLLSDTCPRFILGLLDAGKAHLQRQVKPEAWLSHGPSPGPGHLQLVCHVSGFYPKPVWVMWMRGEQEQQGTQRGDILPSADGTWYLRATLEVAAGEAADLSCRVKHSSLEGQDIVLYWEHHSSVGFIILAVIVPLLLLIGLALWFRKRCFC

CD1a (human) [12] = biological target: CD1a (human) (UniProt P06126); experiment: FACS on Jurkat D1.1 cells; background subtracted, rounded to nearest ten
CD5 (human) [13] = biological target: CD5 (human) (UniProt P06127); experiment: FACS on Jurkat B2.7 cells; background subtracted, rounded to nearest ten
CD5 (human), sequence (P06127 25-495): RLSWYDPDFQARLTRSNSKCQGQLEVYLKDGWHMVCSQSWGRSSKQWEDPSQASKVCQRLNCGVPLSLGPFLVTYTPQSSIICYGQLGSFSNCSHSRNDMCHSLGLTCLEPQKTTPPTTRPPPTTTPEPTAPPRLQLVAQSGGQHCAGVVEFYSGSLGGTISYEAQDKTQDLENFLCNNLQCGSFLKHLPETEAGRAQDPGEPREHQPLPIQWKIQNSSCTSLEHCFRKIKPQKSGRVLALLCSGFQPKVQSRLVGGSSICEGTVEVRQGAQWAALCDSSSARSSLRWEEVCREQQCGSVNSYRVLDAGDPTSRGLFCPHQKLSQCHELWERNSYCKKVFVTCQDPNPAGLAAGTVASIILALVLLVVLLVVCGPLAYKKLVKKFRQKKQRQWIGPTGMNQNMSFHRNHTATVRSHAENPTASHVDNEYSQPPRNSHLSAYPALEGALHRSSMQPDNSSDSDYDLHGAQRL

CD5 (human) [14] = biological target: CD5 (human) (UniProt P06127); experiment: FACS on Jurkat D1.1 cells; background subtracted, rounded to nearest ten
CD18 (human) [15] = biological target: CD18 (human) (UniProt P05107); experiment: FACS on Jurkat B2.7 cells; background subtracted, rounded to nearest ten
CD18 (human), sequence (P05107 23-769): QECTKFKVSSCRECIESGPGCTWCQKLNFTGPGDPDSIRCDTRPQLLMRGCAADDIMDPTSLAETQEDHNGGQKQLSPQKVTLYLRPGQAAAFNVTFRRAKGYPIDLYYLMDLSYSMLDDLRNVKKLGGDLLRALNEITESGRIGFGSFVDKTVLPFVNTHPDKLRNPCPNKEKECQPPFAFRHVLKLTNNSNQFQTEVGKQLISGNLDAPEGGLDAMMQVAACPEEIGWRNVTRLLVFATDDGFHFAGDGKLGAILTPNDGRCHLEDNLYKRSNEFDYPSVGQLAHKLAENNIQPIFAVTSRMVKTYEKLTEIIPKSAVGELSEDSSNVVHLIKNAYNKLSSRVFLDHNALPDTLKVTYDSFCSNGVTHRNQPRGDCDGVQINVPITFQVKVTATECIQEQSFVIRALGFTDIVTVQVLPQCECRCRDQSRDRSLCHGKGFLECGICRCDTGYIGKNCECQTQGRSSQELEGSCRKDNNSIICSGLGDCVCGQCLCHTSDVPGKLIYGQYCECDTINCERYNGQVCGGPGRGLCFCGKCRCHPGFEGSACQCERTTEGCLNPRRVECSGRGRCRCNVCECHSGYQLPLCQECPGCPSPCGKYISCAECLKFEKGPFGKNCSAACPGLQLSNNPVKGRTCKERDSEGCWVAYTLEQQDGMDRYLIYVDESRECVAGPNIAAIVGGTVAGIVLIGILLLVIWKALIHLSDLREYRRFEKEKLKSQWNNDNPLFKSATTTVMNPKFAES

CD18 (human) [16] = biological target: CD18 (human) (UniProt P05107); experiment: FACS on Jurkat D1.1 cells; background subtracted, rounded to nearest ten
CD58 (human) [17] = biological target: CD58 (human) (UniProt P19256); experiment: FACS on Jurkat B2.7 cells; background subtracted, rounded to nearest ten
CD58 (human), sequence (P19256 29-250): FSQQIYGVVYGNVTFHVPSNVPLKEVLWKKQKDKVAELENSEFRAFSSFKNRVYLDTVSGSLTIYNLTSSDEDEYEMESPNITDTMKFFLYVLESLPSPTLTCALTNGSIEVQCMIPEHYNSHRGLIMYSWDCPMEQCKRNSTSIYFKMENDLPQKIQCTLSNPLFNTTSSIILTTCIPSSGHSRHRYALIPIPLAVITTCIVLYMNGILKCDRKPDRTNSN

CD58 (human) [18] = biological target: CD58 (human) (UniProt P19256); experiment: FACS on Jurkat D1.1 cells; background subtracted, rounded to nearest ten
CD7 (human) [19] = biological target: CD7 (human) (UniProt P09564); experiment: FACS on Jurkat B2.7 cells; background subtracted, rounded to nearest ten
CD7 (human), sequence (P09564 26-240): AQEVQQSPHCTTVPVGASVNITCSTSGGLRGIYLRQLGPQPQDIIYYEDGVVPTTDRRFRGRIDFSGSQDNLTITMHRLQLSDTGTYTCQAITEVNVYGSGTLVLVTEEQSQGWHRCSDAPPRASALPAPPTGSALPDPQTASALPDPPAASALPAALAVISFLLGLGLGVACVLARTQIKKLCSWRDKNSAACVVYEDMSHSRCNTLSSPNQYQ

CD7 (human) [20] = biological target: CD7 (human) (UniProt P09564); experiment: FACS on Jurkat D1.1 cells; background subtracted, rounded to nearest ten
CD29 (human) [21] = biological target: CD29 (human) (UniProt P05556); experiment: FACS on Jurkat B2.7 cells; background subtracted, rounded to nearest ten
CD29 (human) [22] = biological target: CD29 (human) (UniProt P05556); experiment: FACS on Jurkat D1.1 cells; background subtracted, rounded to nearest ten
TCRα/β (human) [23] = experiment: FACS on Jurkat B2.7 cells; background subtracted, rounded to nearest ten
TCRα/β (human) [24] = experiment: FACS on Jurkat D1.1 cells; background subtracted, rounded to nearest ten
CD16 (human) [25] = experiment: FACS on Jurkat B2.7 cells; background subtracted, rounded to nearest ten
CD16 (human), sequence (P06734 whole entry): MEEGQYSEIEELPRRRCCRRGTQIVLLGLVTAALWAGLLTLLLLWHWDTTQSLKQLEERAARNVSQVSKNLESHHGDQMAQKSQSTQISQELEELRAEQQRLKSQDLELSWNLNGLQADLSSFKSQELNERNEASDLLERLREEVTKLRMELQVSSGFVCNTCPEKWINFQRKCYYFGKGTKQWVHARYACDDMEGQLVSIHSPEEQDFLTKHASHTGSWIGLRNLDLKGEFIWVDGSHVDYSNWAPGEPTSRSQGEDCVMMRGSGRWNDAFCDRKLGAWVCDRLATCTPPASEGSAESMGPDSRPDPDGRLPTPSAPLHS

CD16 (human) [26] = experiment: FACS on Jurkat D1.1 cells; background subtracted, rounded to nearest ten

CD3 (human), sequence (P07766 23-207): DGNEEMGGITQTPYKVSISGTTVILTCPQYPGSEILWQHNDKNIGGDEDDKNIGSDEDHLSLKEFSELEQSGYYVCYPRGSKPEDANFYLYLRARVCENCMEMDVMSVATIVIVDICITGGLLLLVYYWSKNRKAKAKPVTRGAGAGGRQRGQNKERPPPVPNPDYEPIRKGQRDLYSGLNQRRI

- Mean Fluorescence Intensity (arbitrary units) (CD3 (human) [1]): 80
- Mean Fluorescence Intensity (arbitrary units) (CD3 (human) [2]): 30
Substance: OKT3 (anti-CD3) (antibody)

- Mean Fluorescence Intensity (arbitrary units) (MHC-classI (human) [3]): 70
- Mean Fluorescence Intensity (arbitrary units) (MHC-classI (human) [4]): 190
Substance: W6/32 (anti-MHC class I) (antibody)

- Mean Fluorescence Intensity (arbitrary units) (CD4 (human)): 130
Substance: OKT4 (anti-CD4) (antibody)

- Mean Fluorescence Intensity (arbitrary units) [5]: 20
- Mean Fluorescence Intensity (arbitrary units) [6]: 10
Substance: UCHL1 (antibody)

- Mean Fluorescence Intensity (arbitrary units) (CD11a (human) [7]): 100
- Mean Fluorescence Intensity (arbitrary units) (CD11a (human) [8]): 40
Substance: TS1/22.1.13 (anti-LFA-1a) (antibody)

- Mean Fluorescence Intensity (arbitrary units) (CD45RA (human) [9]): 40
- Mean Fluorescence Intensity (arbitrary units) (CD45RA (human) [10]): 30
Substance: 2H4 (antibody)

- Mean Fluorescence Intensity (arbitrary units) (CD1a (human) [11]): 10
- Mean Fluorescence Intensity (arbitrary units) (CD1a (human) [12]): 10
Substance: OKT6 (anti-CD1a) (antibody)

- Mean Fluorescence Intensity (arbitrary units) (CD5 (human) [13]): 90
- Mean Fluorescence Intensity (arbitrary units) (CD5 (human) [14]): 20
Substance: OKT1 (anti-CD5) (antibody)

- Mean Fluorescence Intensity (arbitrary units) (CD18 (human) [15]): 80
- Mean Fluorescence Intensity (arbitrary units) (CD18 (human) [16]): 30
Substance: TS1/18.1.2.11.4 (anti-LFA-1β) (antibody)

- Mean Fluorescence Intensity (arbitrary units) (CD58 (human) [17]): 60
- Mean Fluorescence Intensity (arbitrary units) (CD58 (human) [18]): 40
Substance: TS2/9.1.4.3 (anti-LFA-3) (antibody)

- Mean Fluorescence Intensity (arbitrary units) (CD7 (human) [19]): 190
- Mean Fluorescence Intensity (arbitrary units) (CD7 (human) [20]): 200
Substance: 3A1 (anti-CD7) (antibody)

- Mean Fluorescence Intensity (arbitrary units) (CD29 (human) [21]): 110
- Mean Fluorescence Intensity (arbitrary units) (CD29 (human) [22]): 140
Substance: 4B4 (antibody)

- Mean Fluorescence Intensity (arbitrary units) (TCRα/β (human) [23]): 40
- Mean Fluorescence Intensity (arbitrary units) (TCRα/β (human) [24]): 10
Substance: BMA-031 (antibody)

- Mean Fluorescence Intensity (arbitrary units) (CD16 (human) [25]): 20
- Mean Fluorescence Intensity (arbitrary units) (CD16 (human) [26]): 20
Substance: 3G8 (antibody)
